Laboratory results published in publication PMC10695385.

Biological target: SYD-2/Liprin-α N-terminal fragment (coiled-coils and IDR) (UniProt Q21049)
Experiment: GFP-trap pull-down, Coomassie gel
Conditions: reference: SAD-1-phosphorylated wild-type SAM; sites S896,S901,S904

SYD-2/Liprin-α SAM domains, 844-1139 (from UniProt Q21049) SAD-1-phosphorylated SAM(3A)
binding against the reference: stronger
